{
  "source": "patent US20130039920A1",
  "about": "(SHANGHAI CANCER INSTITUTE, published 2013)",
  "binders": {"B1": {"name": "monoclonal antibody 12H23 (antibody, V domains shown)", "VH": "DVQLQESGPGLVKPSQSLSLTCTVTAYSVTSDYAWNWIRQFPGNKLEWMGYISYSGTTRYNPSLKSRISITRDTSKNQFFLQLNSMTAEDTATYYCSRQGRGFPYWGQGTLVTVSA", "VL": "DILMTQSPSSMSVSLGDTVSITCHASQDINSNIGWLQQKPGKSFKGLIYHGTNLEDGVPSRFSGSGSGADYSLTISSLESEDFADYYCVQYAQFPWTFGGGTKLEIKR", "notes": "also called murine monoclonal antibody 12H23; clone 12H23"}},
  "key": {"[1]": {"biological_target": "T1, recombinant EGFRvIII extracellular region protein (UniProt P00533 25-645)", "T1 construct": "extracellular domain; also called rEGFRvIIIex; rEGFRvIII", "assay": "non-competitive ELISA, rEGFRvIIIex coated at 2.5 mg/L; antibody concentration at half-maximal OD", "procedure": "(§1) After the coated buffer was removed, the plates were washed with PBS one time followed by adding with 350 μl of PBS containing 5% of skimmed milk powder and incubating overnight. Then the plates were washed with PBS twice. […] The plates were incubated with antibodies at 37° C. for 1 hour and washed thrice with PBS. Then the plates were added with 100 μL of HRP-labeled goat anti-mouse secondary antibodies, incubated at 37° C. for 1 hour and washed 5 times with PBS followed by incubation with ABTS substrate for 15 min. The absorbance value was determined at 405 nm with a microplate reader. The binding curve was drawn according to the absorbance values to obtain the antibody concentration at half-maximal OD value (OD50%)."}, "[2]": {"biological_target": "T1, recombinant EGFRvIII extracellular …", "assay": "non-competitive ELISA on coated rEGFRvIIIex; average of six K values from paired coating concentrations", "procedure": "as §1\n(§2) The concentrations are substituted into the formula K=(n−1)/2 (nAb′−Ab) to calculate the affinity constant, wherein, Ab′ and Ab represent the OD50% antibody concentration (mol/L) when the concentrations of antigen is Ag′ and Ag, n=Ag/Ag′. Six K values were obtained by paired comparison and averaged to obtain the final value."}, "[3]": {"biological_target": "T1, recombinant EGFRvIII extracellular …", "assay": "non-competitive ELISA, rEGFRvIIIex coated at 1.25 mg/L; antibody concentration at half-maximal OD", "procedure": "as §1"}, "[4]": {"biological_target": "T1, recombinant EGFRvIII extracellular …", "assay": "non-competitive ELISA, rEGFRvIIIex coated at 5.0 mg/L; antibody concentration at half-maximal OD", "procedure": "as §1"}, "[5]": {"biological_target": "T1, recombinant EGFRvIII extracellular …", "assay": "non-competitive ELISA on coated rEGFRvIIIex; derived from the affinity constant", "procedure": "as §1, §2"}, "[6]": {"biological_target": "T1, recombinant EGFRvIII extracellular …", "assay": "non-competitive ELISA, rEGFRvIIIex coated at 0.625 mg/L; antibody concentration at half-maximal OD", "procedure": "as §1"}},
  "note": "Several values for one entry are separate records, joined by “and”; a condition that tells them apart may be missing. Identical values can stand only once.",
  "data": [
    {"binder": "B1", "values": [
      {"measurement": "EC50", "setting": "[1]", "value": "0.0025 µg/mL and 0.017 nM"},
      {"measurement": "Ka", "setting": "[2]", "value": "3.8e+10", "unit": "M⁻¹"},
      {"measurement": "EC50", "setting": "[3]", "value": "0.0023 µg/mL and 0.015 nM"},
      {"measurement": "EC50", "setting": "[4]", "value": "0.003 µg/mL and 0.02 nM"},
      {"measurement": "Kd", "setting": "[5]", "value": 0.026, "unit": "nM"},
      {"measurement": "EC50", "setting": "[6]", "value": 2, "unit": "ng/mL"}
    ]}
  ]
}
